According to the RNAGym collection of RNA variant scans (doi:10.1073/pnas.2313332121):

B1: TPR t1 (parent)
chain: GACCAAUCUGCCCUCAGAGCUCGAGAACAUCUUCGGAUGCAGAGGAGGCAGGCUUCGGUGGCGCGAUAGCGCCAACGUCCUCAACCUCCAAUGCAUCCCACCACAUGAUGAUGCCUGAAGAGCCUUGGUUUUUUG

Variants of: B1
Test: polymerase ribozyme fitness, log enrichment relative to wild type (log ratio); higher = more active; in vitro selection for triplet polymerase activity
Outline: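 Mutant libraries were PCR-built and transcribed for each subunit of a heterodimeric triplet polymerase ribozyme and selected for one round in triplicate at −7 °C, frozen, before gel excision of extended constructs and streptavidin-bead capture. Input and output libraries were Illumina-sequenced, keeping genotypes with ≥10 input reads and ≥1 read per output. Fitness is a logarithmic ratio of genotype to wild-type enrichment, in base 2, using inverse-variance-weighted replicate averages.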

Point of comparison: GACCAAUCUGCCCUCAGAGUUCGAGAACAUCUUCAGAUGCAGAGGAGGCAGGCUUCGGUGACGCGAUAGCGCCAACGUCCUCAACCUCCAAUGCAUCCCACCACAUGAUGCUGCCUGAAGAGCCUUGGUUUUUUG, “polymerase ribozyme fitness (log ratio)” value -5.53. Against it:
- GACCAAUCUGCCCUCAGAGCUCGGGAACAUCUUCGGAUGCAGAGGAGGCAGGCUUCGGUGGCGCGAUAGCGCCAACGUCCUCAAACUCCAAUGCAUCCCACCACAUGAUGAUGCCUGAAGAGCCUUGGUUUUUUG — higher, -3.6
- GGCCAAUCUGCCCUCAGAGCUCGAGAACAUCUUCGGAUGCAGAGGAGGCAGGCUUCGGUGGUGCGAUAGCGCCAACGUCCUCAACCUCCAAUGCAUCCCACCACAUGAUAAUGGCUGAAGAGCAUUGGUUUUUUG — lower, -7.09
- GACCAAUCUGCCCUCAGAGCUCGAGAACAUCUUCGGAUGCAGAGGAGGCAGGCUUCGGUGGCGCGAUAGCGCCAACGUCCUCAACCUCCAAUGCAUCCCACCACAUGAUUAGGCCUGAAGAGCCUUGGUUUUUUG — higher, -4.22
- GACCAAUCUGCCCUCAGAGCUCGAGAACAUCUUCGGAUGAAGAGGAGGCAGGCUUCGGUGGCGCGAUAGCGCCAACGUGCUCAACCUCCAAUGCAUCCCACCACAUGAUGAUGCCUGAAGAGCCUUGGUUUUUUG — higher, -3.35
- GACCAAUCUGCUCUCAGAGCUCGAGAACAUCUUCGGUUGCAGAGGAGGCAGGCUUCGGUGGCGCGAUAACGCCAACGUCCUCAACCUCCAAUGCAUCCCACCACAUGAUGAUGCCUGAAGAGCCUUGUUUUUUUG — lower, -5.83
- GACCAAUCUGCCCUCAGAGCUCGAGAACAUCUUCGGAUGCAGAGGAGGCAGGCUUCGGUGGCGCGAUAGCGCCAACGUGCUCAACCUGCAAUGCAUCCCACCACAUGAUGAAGCCUGAAGAGCCUUGGUUUUUUG — higher, -1.98
- GACCAAUCUGCCCUCAGAGCUCGAGAACAUCUUCGGAUGCAGAGGAGGGAGGCUUCGGUGGCGCGAUAGCGACAACGUCCUCAACCUCCAAUGCAUCCCACCACAUGAUGAUGCCUGAAGAGCCUUGGUUUUUUG — higher, -0.887
- GACCAAUCUGCCCUCAGAGCUCGAGAACAUCUUCGAAUGCAGAGGAGGCAGCCUUCGGUGGCGCGAUAGGGCCAACGUCCUCAACCUCCAAUGCAUCCCACCACAUGAUGAUGCCUGAAGAGCCUUGGUUUUUUG — within 0.2 log units, -5.49
- GACCAAUCUGCCCUCAGAGCUCGAGAACAUCUUCGGAUGCAGAGGAGGCAGCCUUCGGUGGCCCGAUAGCGCCAACGUCCUCAAUCUCCAAUGCAUCCCACCAUAUGAUGAUGCCUGAAGAGCCUUGGUUUUUUG — higher, -3.03
- GACCAAUCUGCCCUCAGAGCUCGAGAACAUCUUCGGAUGCAGAGGAGGCAGGCUUCGGUGGCGCGAUAGUGGCAACGUCCUCAACCUCCAAAGCAUCCCACCACAUGUUGACACCUGAAGGGCCUUGGUUUUUUG — lower, -6.12
- GACCAAUCUGCCCUCAGAGCUCGAGAACAUCUUCGGAUGCUGCGGAGGUGGGCUUCGGUGGCGCGAUAGCGCCAACGUCCUCAACCUCCAAUGCAUCCCACCACAUGAUGAUGCCUGAAGAGCCUUGGCUUUUUG — higher, -4.69
- GACCAAUUUGCCCUCAGAGCGCGAGAACAUCUUCGGAUGCAGAGGAGGCAGGCUUCGGUGGCGCGAUAGCGCCAACGUCCUCAACCUCCAAUGCAUCCCACCACAUGAUGAUGCCUGAAGAGCCUUGGUUUUUUG — higher, -0.546
- GACCAAUCUGCCCUCAGAGCUGAAGAACAUCUUCGGAUGCAGAGGAGGCAGGCUUCGGUGGCGCGAUAGCGCCAACGUCCUCAACCUCCAAUGCAUUCCACCACAUGAUGAUGCCUGAACAGCCUUGGUUUUUUG — higher, -3
- GACCAAUCUGCCCUCAGAGCUCGAGAACAUCUUCGGAUGCAGAGGAGGCAUGCUUCGGUGGCGCGAUAGCGCCGACGUCCUCAACCUCCAAUGCAUCCCACCACAUGAUGAUGCCUGAAGAGCCUUGGUUUUUUG — higher, -2.72
- GUCCAAUCUGCCCUCAGAGCACGAGAACAUCUUCGAAUGCAGAGGAGGCAGGCUUUGGUGGCGCGAUAGCGCCAACGUCCUCAACCUCCAAUGCAUCCCACCACAUGAUGAUGACUGAAGAGCCUUGGUUUUUUG — higher, -3.98
- GACCAAUCUGCCCUCAGAGCUCGAGAACAUCUUCGGAUGCAGAGGAGGCAGGCUUCGGUGGCGCGAUAGCGCCAACGUCCUCAACCUCCAAUGCAUCCCACCAGUUGAUGCUGCCUGAAGAACCUUGGUUUUUUG — lower, -7.2
- GACCAAUCUGCCCUCAGAGCUCGAGAACAUCUUCGGAUGCAGCGGAGGCAGACUUCGGUGGCGCGAUAGCGCCAACGUCCUCAACCUCCAAUGCAUCCCACCACAUGAUGAUGCCUGAAGAGCCUUGGUUUUUUG — higher, -2.92
- GACCAAUCUGCCCUCAGAUCUCGAGAACAUCUUCGGAUGCAGAGGAGGCAGGCUGCGGUGGCGCGAUAGCGCCAACGUCCUCAACCUCCAAUGCAUCCCACCACAUGAUGAUGACUGAAGAGCCUUGGUUAUUUG — higher, 2.05
- GACCAAUAUGCCCUAAGAGCUCGAGAACUUCUUCGGAUGCAUAGGAGGCAGGCUUCGGUGGCGCGAUAGCGCCAACGUCCUCAACCUCCAAUGCAUCCCACCACAUGAUGAUGCCUGAAGAGCCUUGGUUUUUUG — higher, -3.65
- GACCAAUCUGCCCUCAGAGCUCGAGAACAUCUUCGGAUGCAGAGGAGGCAGGCUUCGGUGGGGCGAUAGCGCUUACGUCCUCAACCUCCAAUGCAUCCCACCACAUGAGGAUGCCUGAAGAGCAUUGGUUUUUUG — lower, -6.92
